Results taken from patent publication US11702469B2, “Recombinant EGFL7, EGFL7 antibodies, and uses thereof” (Ohio State Innovation Foundation, priority 2017, dated 2023).

Experiments:
[1] = test system: HES1; test: DLL4-Fc coated plate NOTCH activation (HES1 qRT-PCR), THP-1; assay type: cell-based, human; details: pre-treated 30 min: 10 μM AVA, 100 μg/ml anti-EGFL7 or 0.25 μM rEGFL7; then 4 h; vs DLL4-FC
Procedure: (§1) FIG. 24A-24G. EGFL7 prevents activation of NOTCH signaling in AML cells. (FIG. 24A) Overview of experiments using DLL4-FC and IgG-FC control coated plates to induce NOTCH activation. (FIG. 24B) THP-1 cells were pre-treated with 10 μM γ-secretase inhibitor (AVA), 100 μg/ml anti-EGFL7 antibody or 0.25 μM rEGFL7 for 30 min, then transferred to IgG-Fc or DLL4-Fc coated plates. After 4 h of incubation total RNA from THP-1 cells was extracted for qRT-PCR analysis of HES1 with β-ACTIN as internal control. ^###P<0.001 DLL4-FC vs IgG-FC; ***P<0.001 DLL4+AVA, DLL4+rEGFL7, and DLL4+anti-EGFL7 vs DLL4-FC. (FIG. 24C) Primary AML blasts were pretreated with 10 μM γ-secretase inhibitor (AVA), 100 μg/ml anti-EGFL7 antibody or 0.25 μM rEGFL7 for 30 min, then transferred to IgG-Fc or DLL4-Fc coated plates. After 4 h of incubation, total RNA was extracted for RT-PCR analysis of HES1 mRNA with β-ACTIN as internal control. ^###P<0.001 DLL4-Fc vs IgG-Fc; *P<0.05, ***P<0.001 vs DLL4 Fc. THP-1 cells were treated with the indicated concentration of anti-EGFL7 (@E7) then assessed for apoptosis using (FIG. 24D) AnnexinV+ staining and FACS; *P<0.05 (FIG. 24E) Immuno-blotting for PARP1 and Casp3 cleavage. (FIG. 24F) Cell differentiation was assessed by CD11B and CD14 staining 96-hours post anti-EGFL7 treatments; *P<0.05. (FIG. 24G) To determine whether activation of NOTCH by DLL4-Fc could be accentuated by anti-EGFL7 treatment, THP-1 cells were first treated with anti-EGFL7 (100 μg/ml) and then cultured on DLL4-FC or IgG-Fc coated plates and then assessed for apoptosis using AnnexinV+ staining and FACS. *P<0.05 DLL4-Fc and anti-EGFL7; vs DLL4-FC+anti-EGFL7.
Total RNA was extracted using Trizol reagent (Invitrogen, Carlsbad, Calif., USA). cDNA was synthesized using SuperScript III reagents (Invitrogen) according to the manufacturer's instruction. Quantitative Real-Time RT-PCR was performed using commercially available TaqMan Gene Expression Assay primers and the 7900HT Fast Real-Time PCR System (Applied Biosystems, Foster City, Calif., USA). […]

[2] = test system: THP-1 cells; test: Apoptosis (AnnexinV+ FACS), THP-1; assay type: cell-based, human; details: anti-EGFL7 treatment
Procedure: as §1, with “(FIG. 24C) Primary AML blasts were pretreated with 10 μM γ-secretase inhibitor (AVA), 100 μg/ml anti-EGFL7 antibody or 0.25 μM rEGFL7 for 30 min, then transferred to IgG-Fc or DLL4-Fc coated plates. After 4 h of incubation, total RNA was extracted for RT-PCR analysis of HES1 mRNA with β-ACTIN as internal control. ^###P<0.001 DLL4-Fc vs IgG-Fc; *P<0.05, ***P<0.001 vs DLL4 Fc.” left out, “DLL4-FC+anti-EGFL7. […]” for “DLL4-FC+anti-EGFL7.”

[3] = test system: PARP1 and CASP3 cleavage; test: PARP1 and Casp3 cleavage immunoblot, THP-1; assay type: cell-based, human; details: anti-EGFL7 treatment, western blots
Procedure: as §1, with “(FIG. 24C) Primary AML blasts were pretreated with 10 μM γ-secretase inhibitor (AVA), 100 μg/ml anti-EGFL7 antibody or 0.25 μM rEGFL7 for 30 min, then transferred to IgG-Fc or DLL4-Fc coated plates. After 4 h of incubation, total RNA was extracted for RT-PCR analysis of HES1 mRNA with β-ACTIN as internal control. ^###P<0.001 DLL4-Fc vs IgG-Fc; *P<0.05, ***P<0.001 vs DLL4 Fc.” left out, “DLL4-FC+anti-EGFL7. […]” for “DLL4-FC+anti-EGFL7.”

[4] = test system: non-small cell lung cancer; details: mouse, in vivo; cited from earlier work

B1: Parsatuzumab: Anti-human EGFL7 therapeutic antibody (Parsatuzumab) obtained from Creative Biolabs; blocking monoclonal antibody (antibody, chains of the INN, looked up, V domains shown)
VH: EVQLVESGGGLVQPGGSLRLSCAASGYTFIDYYMNWVRQAPGKGLEWVGDINLDNSGTHYNQKFKGRFTISRDKSKNTAYLQMNSLRAEDTAVYYCAREGVYHDYDDYAMDYWGQGTLVTVSS
VL: DIQMTQSPSSLSASVGDRVTITCRTSQSLVHINAITYLHWYQQKPGKAPKLLIYRVSNRFSGVPSRFSGSGSGTDFTLTISSLQPEDFATYYCGQSTHVPLTFGQGTKVEIK
In the case of B1, the “DLL4-Fc-mediated NOTCH activation (HES1)” value [1] is reported as “enhanced”, the “AnnexinV+ apoptotic cells” value [2] is reported as “increase in AnnexinV+” and the “PARP1 and CASP3 cleavage” value [3] is reported as “increase in PARP1 and CASP3 cleavage”. The overall survival [4] was “increased overall survival” and the tumor size [4] was “decreased tumor size”.
